In PMC2615687 (2008):

T1: myelin oligodendroglial glycoprotein (MOG) peptide on I-Ab (mouse)
T1 peptide: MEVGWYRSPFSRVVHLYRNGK

B1: 1MOG9 (TCR)
alpha TRAV12D-3*01 TRAJ17*01 CDR3: CALSAANSAGNKLTF
beta TRBV13-2*01 TRBJ2-4*01 CDR3: CASGDWGGEDTLYF
B2: 2MOG10 (TCR)
alpha TRAV14-2*01 TRAJ21*01 CDR3: CAAASRIYNVLYF
beta TRBV5*01 TRBJ2-5*01 CDR3: CASNGLGEEDTQYF
B3: 1MOG23 (TCR)
alpha TRAV12D-2*02 TRAJ18*01 CDR3: CALSDRGSALGRLHF
beta TRBV19*01 TRBJ2-3*01 CDR3: CASSIADSSAETLYF

Legend:
[1] = target: T1, myelin oligodendroglial glycoprotein …; assay: cytokine release
[2] = target: T1, myelin oligodendroglial glycoprotein …; assay: in vivo

Row | binding result [1] | binding result [2] | Binder
1 | recognises | – | B1
2 | recognises | – | B2
3 | – | recognises | B3
